In the supplement of paper PMC9170038:

System: K4 kissing-loop RNA reporter
Assay: apparent KD of K4 kissing-loop reporter; higher = weaker reporter binding
Settings: Eterna round: R107
Procedure: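 RNA-MaP round R107: designed RNA switches with theophylline, tryptophan, arginine or FMN aptamers are transcribed on-chip within common flanks. They are titrated with a labelled K4 kissing-loop RNA reporter in RNA-MaP buffer (100 mM Tris pH 7.5, 80 mM KCl, 4 mM MgCl2), without ligand or with the indicated ligand. Median apparent KD per design.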

[1] = input ligand: theophylline 20 uM
[2] = input ligand: tryptophan 2.4 mM
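Note: bound reporter read as fluorescence of individual clusters on recovered sequencing chips by microscopy, with normalized cluster intensities fitted with a binding model.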

Sequence	apparent KD of K4 kissing-loop reporter (input ligand: FMN 200 uM)	apparent KD of K4 kissing-loop reporter (input ligand: arginine 13.2 mM)	apparent KD of K4 kissing-loop reporter (input ligand: none)	apparent KD of K4 kissing-loop reporter [1]	apparent KD of K4 kissing-loop reporter [2]
UAAUGUGGCACAGGAUAUACUGAUUGGAGUGAUGUUCCAAACAUGGACGUGAGACUUUUACAAGAAGUAGAAGGGUGUUAGAUAU [Exclusion FMN B GF 20]	241 nM	298 nM	304 nM	448 nM	306 nM
AAGUGUGUGGCGGCCGCCACUAGAAUCCAGUGAUGUUGGAGUAAUCAAAUAAAUAAUAAUAAACAUAGGACCGGGCCAUAUAGAA [Same State - Tryptophan B (Freestyle 2)]	154 nM	138 nM	147 nM	134 nM	129 nM
AUGGUUGUCGUAGGAUAUGUAGGAUAUUCUAAAAUAUGAAGUGAUGUUUCUAUAAUAAGAAGAAGGACAGAAGGACGAUAACCAC [FmnBS 1 - SaraBot transfer #DoubleAptamer]	90.4 nM	104 nM	114 nM	89.3 nM	108 nM
CGAUAUAAGAAUAUAUAUCUCUAUUCAGAAGGAGCGUGUUUGUACACAGGUAGGUCGCUGAAAUUUAAACUAGUGAUGUUAGACU [JR_SSArginiA_Sub002]	1170 nM	878 nM	1210 nM	1000 nM	890 nM
AAAAUAAACCAGUGAUGUUGGUGUCCAGAUACCAGCGACGAAAGUCGCCCUUGGCAGCUGUGGACGUACAAAAUAAGUACGUCCU	332 nM	229 nM	356 nM	209 nM	290 nM
UCCUGCAAUCUGCCACGAAAGUGGGUUGAUACCAGAGUCGAAAGACUCCCUUGGCAGCGAGUGAUGUUCGUUGCAGGUAAAUAAA [MatMod 8 - Jieux - Exclusion - Theophylline A]	194 nM	163 nM	200 nM	180 nM	168 nM
AGCCGUCUAAGUGAUGUUUAGGCAUGUCAGCGAGGACCGGUACGGCCGCCACUCGUGCUAUUGAGAUUUCGGGUAGCCCACGUAG [theeternabot_sameState_KL_Trp_A_20]	288 nM	187 nM	271 nM	125 nM	163 nM
ACGAUCAUGUCGGCCGCCACUGAGAGUAGUGAUGUUACUCUUUUCCUUUAGUUAUUAUAUUUUAUCAGGACCGGGACAUGUUCGU [JR_ExcTryptoB_Sub022]	88.3 nM	66.7 nM	72.3 nM	69.6 nM	77.9 nM
GGACAAGCAUUAGGAUAUAUAGAGCGAAACGCAAUUGAGUGAUGUUCAAAAGCAUAGGGCGAGGAAAUAGAAGGAAUGCACGGGC [Default title]	192 nM	180 nM	216 nM	151 nM	152 nM
UGAUACCAGACUGAUACCAGCCAGUGAUGUUGGCAAUAUCCAAGGUGAGUCAAAGACUCGGGCCCUUGGCAGCAGUCUGGUAUCU [TheoBX 7 #SwitchBubble #StaticStem]	146 nM	139 nM	148 nM	152 nM	135 nM
UAUAUAUGAUGUGAUACCAGUGAAAAGCCAGUGAUGUUGGAGGAGCUGGUAUAUAAAUAAGACCCUUGGCAGCACAAUCACGUAU [#01 K4 Theophylline B Exclusion]	227 nM	202 nM	212 nM	221 nM	214 nM
GGUAUCCAGUACCAUUGCGUUAAAACAGAAGGAGCGAGAAUAGACUCAGGUAGGUCGCUGUUUAUAGUCGAGUGAUGUUCGAAUC [Same State Arginine A GF 14]	202 nM	281 nM	265 nM	315 nM	188 nM
AGUGGACGUGUUCGGAGUGAUGUUCCGGAUACCAGACACGAAAGUGUCCCUUGGCAGCCGGAGUGAUGUUCCGGCGUUCACUAAA [Omei KL Theo A Exc B v2]	646 nM	311 nM	538 nM	533 nM	439 nM
GGUGUUGUUUGUGCUGUUUUCCUCGUUUCUCGAGGACCGGUACGGCCGCCACUCGAGUGAUGUUUGGGUAGCGAUCUUUGUUAGU [Bdazzled - #5 Exc. Tryptophan A]	223 nM	142 nM	177 nM	177 nM	281 nM
AUCUAUGAGCGAGGAUAUGCAUAACGCGAGUGAUGUUCGCGAUGUGGGCGUAAUUGAUAAAAUGAAGCAGAAGGCGCACUCAUGA [Exclusion - FMW B / B]	165 nM	115 nM	177 nM	155 nM	120 nM
GGAUGGUAGGCGGCCGCCACUAAAACUGAACAAAUAUAAACCAGUGAUGUUGGUAUGAUGAAGUAUAGGACCGGGCCUAGAUAGA [Exclusion - Tryptophan B (Freestyle 1)]	124 nM	134 nM	143 nM	160 nM	122 nM

Sequence	apparent KD of K4 kissing-loop reporter (input ligand: FMN 200 uM)	apparent KD of K4 kissing-loop reporter (input ligand: arginine 13.2 mM)	apparent KD of K4 kissing-loop reporter (input ligand: none)	apparent KD of K4 kissing-loop reporter [1]	apparent KD of K4 kissing-loop reporter [2]
UACAUAUUAUUAUUUCUACAUUUAUUUAGUCAGGAUAUCGAUUAAACGAGAAGGGACAAUAUCAAGUGAUGUUUGAUAAUUCAAA [JR_SSFMNA_Sub022]	85.3 nM	123 nM	81.6 nM	118 nM	60 nM
AGGUUUUGAUUAGGAUAUGCACUGACGACGAGAAUAUAGUGAUGUUAUAUAAUACGAAUUAGUAGAGUAGAAGGGAUUGAGGUUU [SSFMNB.X]	422 nM	307 nM	348 nM	390 nM	286 nM
UGUGUUGUUUUGAUGUUUGUUGUAAAAUGGCAGGAUAUCGUAGAGGCGAGAAGGGCUUUUAUGCGUUAUGAGUGAUGUUUGUAGG [zvvczmullin]	338 nM	283 nM	352 nM	340 nM	263 nM
GCCUGAGCACGAAGGAGCGCCGUGACAGGUUACUGCCUUGGGCAGUGAUGUUGCUCAAUCUGGCAGGUAGGUCGCGUGCUCAGGC	165 nM	161 nM	162 nM	131 nM	167 nM
GGGUAUUACGGAGGAUAUGCACUGAGGAGGAGAAUAUAGUGAUGUUAUAUAAGAGGAAGGAGAAGAGUAGAAGGCCGUGGUGUUU [SSFMNB.J]	171 nM	126 nM	170 nM	195 nM	109 nM
AGCAUUUUCAGAAGGAGCGUGAAUUAUUCAUAAUUAUAUUAUACGAGUGAUGUUCGUAUUUCACAGGUAGGUCGCUGAUAUAGCA [JR_SSArginiB_Sub002]	51.4 nM	78.3 nM	50.1 nM	81.6 nM	46.6 nM
UUACUACCCAGUGAUGUUGGGUAGCGGCGGCGAGGACCGGUACGGCCGCCACUCGGCGCACGGGAGUGAUGUUCCUAAGAAUAAA [Same State Tryptophan A GF 9]	295 nM	306 nM	335 nM	350 nM	140 nM
UCGAUAGCCAGCGAUACCAGCCCAGUGAUGUUGGGCACAUGGUUGCGGGAAAUCCUAUUGGGCCCUUGGCAGCGCUUGCAUGGGU [Anbixeza]	127 nM	118 nM	119 nM	107 nM	110 nM
CGUUUAUAGCAGGAUACCAGUACCCAUAAAGUACGUUAAUAGUAGAGUGAUGUUCUAAAGUACCCUUGGCAGCUUCCCGUGAGUG [ExTheophylB.T]	88.9 nM	129 nM	103 nM	134 nM	67.8 nM
AGAGUCGGCUGUGAUACCAGUCGUAUUACAACAUGUCGCAGUGAUGUUGCGAGAUAGGAUGACCCUUGGCAGCACUCAGUACGAU [Same State Theophylline B GF 8]	347 nM	277 nM	421 nM	503 nM	323 nM
GUAUGUGGAAACACGUACUUAUAUCCUAAGCAGGAUAUGCGGAAACGCAGAAGGGCUACCAACGAGUUUACCCAGUGAUGUUGGG [Ex FMN A 14]	275 nM	260 nM	320 nM	288 nM	296 nM
UCGGAGGGAGCGGCCGCCACUGUAUUACCUCGACGAACGCCGGUUUUCAUGAAGUGAUGUUUCGCCAGGACCGGGCUAAUCUGAG [theeternabot_exclusion_KL_Trp_B_46]	244 nM	202 nM	235 nM	217 nM	206 nM
GGCAGUGAUGUUGCCAGUGGCAGAUGCGAAGGAGCGCGGUGAGACGCAGGUAGGUCGCGCAUUGAAAUUGCUGUCACUAGAAUGC [whbob_Ex_Arginine_A_2t127]	258 nM	285 nM	283 nM	305 nM	208 nM
GGAUCUGCCAGUGAUGUUGGUUAAUAUAUCAAGGAUAUGACGAAAGUCAGAAGGUGAAAGACUGGACAAAGUCCAGUCGGAUCCA [KL-SSFMN-A20]	237 nM	312 nM	352 nM	460 nM	270 nM
CGGCGGAGUGAUGUUCUGCUCGCUCCGGAUACCAGCUUCGCCAGAGGCCCUUGGCAGCCGGGCGGCCCAGUGAUGUUGGGUUGCG [Same State Theophylline A GF 17]	297 nM	243 nM	277 nM	246 nM	237 nM
CAUAAAAGGUGGAAGACGAAUCGGUGUCGCCGAGGACCGGUACGGCCGCCACUCGGUCAUCAAAUCCUUCCCGAGUGAUGUUCGA [theeternabot_sameState_KL_Trp_A_5]	382 nM	439 nM	501 nM	444 nM	258 nM
